In patent publication US20250115669A1, “FGFR1/KLB Targeting Agonistic Antigen-Binding Proteins and Conjugates Thereof with GLP-1R Agonistic Peptides” (SANOFI, priority 2020, published 2025):
Positions count from the first letter of the chain named. Names and notes keep the numbering of the source.

B1: Ab0344: IgG4 PE; 16H7 VL (N25S, D49A, D50A, D91E, N93S); 16H7 VH (M34V, I83T, D109E) (antibody)
VH: QVTLKESGPVLVKPTETLTLTCTVSGFSLNNARVGVSWIRQPPGKALEWLAHIFSNDEKSYSTSLKSRLTISKDTSKSQVVLTMTNMDPVDTATYYCARSVVTGGYYYEGMDVWGQGTTVTVSS
light: SYVLTQPPSVSVAPGQTARITCGGSNIGSESVHWYQQKPGQAPVLVVYAASDRPSGIPERFSGSNSGNTATLTISRVEAGDEADYYCQVWEGSSDHVVFGGGTKLTVLGQPKANPTVTLFPPSSEELQANKATLVCLISDFYPGAVTVAWKADGSPVKAGVETTKPSKQSNNKYAASSYLSLTPEQWKSHRSYSCQVTHEGSTVEKTVAPTECS
B2: Ab0345: IgG4 PE; 16H7 VL (N25S, D49A, D50A, D91E, N93A); 16H7 VH (M34V, I83T, D109E) (antibody)
VH: B1 VH
light: B1 light with S93A
B3: Ab0346: IgG4 PE; 16H7 VL (N25S, D49A, D50H, D91A, N93S); 16H7 VH (M34V, I83T, D109E) (antibody)
VH: B1 VH
light: B1 light with A50H, E91A
B4: Ab0347: IgG4 PE; 16H7 VL (N25S, D49A, D50S, D91A, N93S); 16H7 VH (M34V, I83T, D109E) (antibody)
VH: B1 VH
light: B1 light with A50S, E91A
B5: Ab0348: IgG4 PE; 16H7 VL (N25S, D49E, D50E, D91T, N93E); 16H7 VH (M34V, I83T, D109E) (antibody)
VH: B1 VH
light: B1 light with A49E, A50E, E91T, S93E
B6: Ab0349: IgG4 PE; 16H7 VL (N25S, D49E, D50E, D91T, N93S); 16H7 VH (M34V, I83T, D109E) (antibody)
VH: B1 VH
light: B1 light with A49E, A50E, E91T
B7: Ab0350: IgG4 PE; 16H7 VL (N25S, D49E, D50E, D91A, N93S); 16H7 VH (M34V, I83T, D109E) (antibody)
VH: B1 VH
light: B1 light with A49E, A50E, E91A
B8: Ab0352: IgG4 PE; 16H7 VL (N25S, D49E, D50E, D91E, N93S); 16H7 VH (M34V, I83T, D109E) (antibody)
VH: B1 VH
light: B1 light with A49E, A50E
B9: Ab0353: IgG4 PE; 16H7 VL (N25S, D49E, D50E, D91E, N93A); 16H7 VH (M34V, I83T, D109E) (antibody)
VH: B1 VH
light: B1 light with A49E, A50E, S93A
B10: Ab0354: IgG4 PE; 16H7 VL (N25S, D49E, D50E, D91H, N93S); 16H7 VH (M34V, I83T, D109E) (antibody)
VH: B1 VH
light: B1 light with A49E, A50E, E91H
B11: Ab0355: IgG4 PE; 16H7 VL (N25S, D49E, D50Y, D91E, N93S); 16H7 VH (M34V, I83T, D109E) (antibody)
VH: B1 VH
light: B1 light with A49E, A50Y
B12: Ab0356: IgG4 PE; 16H7 VL (N25S, D49E, D50A, D91A, N93S); 16H7 VH (M34V, I83T, D109E) (antibody)
VH: B1 VH
light: B1 light with A49E, E91A
B13: Ab0357: IgG4 PE; 16H7 VL (N25S, D49E, D50A, D91E, N93S); 16H7 VH (M34V, I83T, D109E) (antibody)
VH: B1 VH
light: B1 light with A49E
B14: Ab0312: IgG4 PE; 16H7 VL (N25S, D49Y, D50E, N93E); 16H7 VH (M34V, I83T, D109E) (antibody)
VH: B1 VH
light: B1 light with A49Y, A50E, E91D, S93E
B15: Ab0358: IgG4 PE; 16H7 VL (N25S, D49E, D50A, D91H, N93S); 16H7 VH (M34V, I83T, D109E) (antibody)
VH: B1 VH
light: B1 light with A49E, E91H
B16: Ab0359: IgG4 PE; 16H7 VL (N25S, D49E, D50H, D91A, N93S); 16H7 VH (M34V, I83T, D109E) (antibody)
VH: B1 VH
light: B1 light with A49E, A50H, E91A
B17: Ab0360: IgG4 PE; 16H7 VL (N25S, D49E, D50H, D91E, N93S); 16H7 VH (M34V, I83T, D109E) (antibody)
VH: B1 VH
light: B1 light with A49E, A50H
B18: Ab0361: IgG4 PE; 16H7 VL (N25S, D49E, D50S, D91E, N93S); 16H7 VH (M34V, I83T, D109E) (antibody)
VH: B1 VH
light: B1 light with A49E, A50S
B19: Ab0298: IgG4 PE; 16H7 VL (N25S, D49Y, D50E); 16H7 VH (M34V, I83T, D109E) (antibody)
VH: B1 VH
light: B1 light with A49Y, A50E, E91D, S93N
B20: Ab0362: IgG4 PE; 16H7 VL (N25S, D49T, D50E, D91A, N93S); 16H7 VH (M34V, I83T, D109E) (antibody)
VH: B1 VH
light: B1 light with A49T, A50E, E91A
B21: Ab0363: IgG4 PE; 16H7 VL (N25A, D49S, D50A, D91A, N93A); 16H7 VH (M34V, I83T, D109E) (antibody)
VH: B1 VH
light: B1 light with S25A, A49S, E91A, S93A
B22: Ab0364: IgG4 PE; 16H7 VL (N25A, D49E, D50E, D91E, N93S); 16H7 VH (M34V, I83T, D109E) (antibody)
VH: B1 VH
light: B1 light with S25A, A49E, A50E
B23: Ab0301: IgG4 PE; 16H7 VL (N25S, D49Y, D91T); 16H7 VH (M34V, I83T, D109E) (antibody)
VH: B1 VH
light: B1 light with A49Y, A50D, E91T, S93N

These molecules were tested against T1, human beta-Klotho (Homo sapiens, UniProt Q86Z14) (assay: SPR off-rate screening of antibody mutants (human beta-Klotho captured by anti-His antibody)). Conditions: mean, n=3.
T1 sequence (Q86Z14 1-1044): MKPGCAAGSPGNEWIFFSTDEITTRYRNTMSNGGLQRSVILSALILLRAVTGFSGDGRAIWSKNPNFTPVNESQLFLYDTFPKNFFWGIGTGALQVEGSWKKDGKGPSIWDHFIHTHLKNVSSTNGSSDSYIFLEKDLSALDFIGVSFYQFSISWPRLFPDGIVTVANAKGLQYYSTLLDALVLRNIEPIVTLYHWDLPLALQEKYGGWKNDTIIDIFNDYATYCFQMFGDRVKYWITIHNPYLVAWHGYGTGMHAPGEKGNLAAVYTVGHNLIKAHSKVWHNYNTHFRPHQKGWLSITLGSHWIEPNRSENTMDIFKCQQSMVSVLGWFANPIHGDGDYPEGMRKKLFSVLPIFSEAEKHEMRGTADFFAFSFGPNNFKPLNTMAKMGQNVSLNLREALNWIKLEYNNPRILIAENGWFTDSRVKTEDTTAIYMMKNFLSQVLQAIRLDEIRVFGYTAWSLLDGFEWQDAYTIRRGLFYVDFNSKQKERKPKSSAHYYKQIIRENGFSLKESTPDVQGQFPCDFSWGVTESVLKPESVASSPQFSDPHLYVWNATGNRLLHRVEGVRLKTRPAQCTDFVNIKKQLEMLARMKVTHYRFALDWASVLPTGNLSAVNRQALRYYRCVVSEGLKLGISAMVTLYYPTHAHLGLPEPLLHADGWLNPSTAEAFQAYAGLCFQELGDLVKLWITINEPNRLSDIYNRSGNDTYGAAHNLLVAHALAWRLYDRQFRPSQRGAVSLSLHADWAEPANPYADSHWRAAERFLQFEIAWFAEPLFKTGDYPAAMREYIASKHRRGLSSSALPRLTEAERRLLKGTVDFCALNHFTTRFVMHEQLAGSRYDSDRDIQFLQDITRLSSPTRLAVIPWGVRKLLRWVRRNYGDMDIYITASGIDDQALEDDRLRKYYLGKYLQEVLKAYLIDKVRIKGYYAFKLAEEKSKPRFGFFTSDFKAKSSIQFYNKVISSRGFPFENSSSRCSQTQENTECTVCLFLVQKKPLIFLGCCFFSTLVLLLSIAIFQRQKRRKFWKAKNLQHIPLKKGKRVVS
Type: binding
Outline: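 His-tagged beta-Klotho was captured via an anti-His antibody amine-coupled to a CM5 chip, and antibody mutants were injected as analytes at 50 nmol/L. Association ran 240 sec, dissociation 300 sec; off-rates (kd) came from single exponential fitting.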

Row | Molecule | koff human KLB
1 | B1 | 0.00168 s⁻¹
2 | B2 | 0.00188 s⁻¹
3 | B3 | invalid fit
4 | B4 | invalid fit
5 | B5 | invalid fit
6 | B6 | invalid fit
7 | B7 | invalid fit
8 | B8 | 0.0004194 s⁻¹
9 | B9 | 0.0003799 s⁻¹
10 | B10 | 0.00158 s⁻¹
11 | B11 | 0.00195 s⁻¹
12 | B12 | invalid fit
13 | B13 | 0.00185 s⁻¹
14 | B14 | 0.0005302 s⁻¹
15 | B15 | 0.0004541 s⁻¹
16 | B16 | invalid fit
17 | B17 | 0.00192 s⁻¹
18 | B18 | 0.00163 s⁻¹
19 | B19 | 0.0016 s⁻¹
20 | B20 | invalid fit
21 | B21 | invalid fit
22 | B22 | 0.00169 s⁻¹
23 | B23 | invalid fit
